In US20240383984A1 (Genentech, published 2024):
Residue numbers refer to the chain shown, from its start.

Legend:
[1] = target: T1, cynomolgus FcRH5 protein fragment (soluble) (cynomolgus monkey); assay: SPR (BIACORE), TDB captured as ligand, Cyno FcRH5 as analyte, 25 °C, 1:1 binding model
T1 construct: whole entry named; also called Cyno FcRH5 (BIACORE analyte)
T1 chain: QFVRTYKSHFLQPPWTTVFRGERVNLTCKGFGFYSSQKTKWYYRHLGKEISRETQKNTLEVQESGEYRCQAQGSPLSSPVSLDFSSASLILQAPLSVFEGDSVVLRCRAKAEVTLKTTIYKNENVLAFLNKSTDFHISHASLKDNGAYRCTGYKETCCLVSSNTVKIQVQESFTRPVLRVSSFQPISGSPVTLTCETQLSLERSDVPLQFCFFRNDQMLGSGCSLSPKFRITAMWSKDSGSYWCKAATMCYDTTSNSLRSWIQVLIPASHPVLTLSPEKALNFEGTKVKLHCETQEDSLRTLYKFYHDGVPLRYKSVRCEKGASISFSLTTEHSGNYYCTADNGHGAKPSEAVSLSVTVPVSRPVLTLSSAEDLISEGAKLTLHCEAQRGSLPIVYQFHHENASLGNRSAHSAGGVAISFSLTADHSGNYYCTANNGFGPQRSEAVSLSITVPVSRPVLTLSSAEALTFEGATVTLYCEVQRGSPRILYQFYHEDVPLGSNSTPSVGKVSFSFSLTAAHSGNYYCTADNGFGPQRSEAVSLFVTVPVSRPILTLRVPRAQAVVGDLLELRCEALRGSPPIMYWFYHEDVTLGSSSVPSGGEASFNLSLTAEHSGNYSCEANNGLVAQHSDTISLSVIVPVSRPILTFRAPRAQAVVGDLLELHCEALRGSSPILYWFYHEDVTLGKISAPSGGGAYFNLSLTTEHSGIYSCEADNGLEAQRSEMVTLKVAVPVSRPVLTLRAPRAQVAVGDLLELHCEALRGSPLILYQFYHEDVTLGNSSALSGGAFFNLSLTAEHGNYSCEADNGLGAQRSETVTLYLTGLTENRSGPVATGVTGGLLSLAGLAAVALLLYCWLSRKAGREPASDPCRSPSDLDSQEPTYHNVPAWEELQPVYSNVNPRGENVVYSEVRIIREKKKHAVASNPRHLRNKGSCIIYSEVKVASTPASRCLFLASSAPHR

[2] = target: T2, human FcRH5 protein fragment (soluble) (human, UniProt Q96RD9 16-851); assay: BIACORE
T2 construct: whole entry named; also called soluble human FcRH5; Human FcRH5 (BIACORE analyte)
T2 sequence: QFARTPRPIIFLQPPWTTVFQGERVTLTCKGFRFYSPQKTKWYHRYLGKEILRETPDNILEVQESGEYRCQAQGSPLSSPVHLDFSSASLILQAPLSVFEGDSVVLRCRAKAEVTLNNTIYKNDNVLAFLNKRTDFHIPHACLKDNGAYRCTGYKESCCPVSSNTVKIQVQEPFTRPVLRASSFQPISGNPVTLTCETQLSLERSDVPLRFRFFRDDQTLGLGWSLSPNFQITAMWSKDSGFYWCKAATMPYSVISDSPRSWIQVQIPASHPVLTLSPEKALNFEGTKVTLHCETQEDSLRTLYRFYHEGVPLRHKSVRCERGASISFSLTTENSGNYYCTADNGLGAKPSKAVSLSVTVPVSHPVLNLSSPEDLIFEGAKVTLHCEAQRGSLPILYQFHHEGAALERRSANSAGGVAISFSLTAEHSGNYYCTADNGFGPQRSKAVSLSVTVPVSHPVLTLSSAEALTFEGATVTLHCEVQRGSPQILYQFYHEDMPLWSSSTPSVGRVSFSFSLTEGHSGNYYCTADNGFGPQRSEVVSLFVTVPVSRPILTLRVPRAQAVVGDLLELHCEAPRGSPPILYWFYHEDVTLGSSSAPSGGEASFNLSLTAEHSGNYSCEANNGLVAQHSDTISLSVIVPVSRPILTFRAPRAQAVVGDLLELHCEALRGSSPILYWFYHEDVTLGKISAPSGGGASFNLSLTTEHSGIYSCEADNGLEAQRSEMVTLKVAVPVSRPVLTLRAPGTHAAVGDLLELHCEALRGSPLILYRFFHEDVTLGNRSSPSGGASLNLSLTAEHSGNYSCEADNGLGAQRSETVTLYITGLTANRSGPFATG

[3] = target: T1, cynomolgus FcRH5 protein fragment …; assay: BIACORE
[4] = target: T2, human FcRH5 protein fragment (soluble); assay: SPR (BIACORE), hIgG capture format, 1:1 binding model, monovalent affinity; same numbers as FIG. 10B, Hu FcRH5 panel
Procedure: Kinetic characterization experiments were carried out (see Table 8). In these experiments, binding of soluble FcRH5 protein fragment to purified antibodies in human TDB antibody format was analyzed at six different non-zero concentrations (a 1:3 dilution series, one concentration injected twice as a replicate). Flow rate was set at 40 μl/min and association and dissociation monitored for 600 s.

[5] = target: T1, cynomolgus FcRH5 protein fragment …; assay: SPR (BIACORE), Cyno FcRH5, 1:1 binding model

B1: hu1G7.v1.4/38E4.v1 TDB (bispecific antibody, V domains shown)
VH 1: EVQLVESGPGLVKPSETLSLTCTVSGFSLTRFGVHWVRQPPGKGLEWLGVIWRGGSTDYNAAFMSRLTISKDNSKNQVSLKLSSVTAADTAVYYCSNHYYGSSDYALDNWGQGTLVTVSS
VL 1: DIQMTQSPSSLSASVGDRVTITCKASQDVRNLVVWFQQKPGKAPKLLIYSGSYRYSGVPSRFSGSGSGTDFTLTISSLQPEDFATYYCQQHYSPPYTFGQGTKVEIK
VH 2: EVQLVQSGAEVKKPGASVKVSCKASGFTFTSYYIHWVRQAPGQGLEWIGWIYPENDNTKYNEKFKDRVTITADTSTSTAYLELSSLRSEDTAVYYCARDGYSRYYFDYWGQGTLVTVSS
VL 2: DIVMTQSPDSLAVSLGERATINCKSSQSLLNSRTRKNYLAWYQQKPGQSPKLLIYWTSTRKSGVPDRFSGSGSGTDFTLTISSLQAEDVAVYYCKQSFILRTFGQGTKVEIK
notes: knob-into-hole TDB; also called 1G7.v1.4 TDB; 1G7.v1.4 (TDB format)
[1]
  Kd: 6.27 nM
  koff: 0.000847 s⁻¹
  kon: 135000 M⁻¹ s⁻¹

B2: 1G7.v85/38E4.v1 TDB (bispecific antibody, V domains shown)
VH 1: B1 VH 1 with M64V
VL 1: B1 VL 1
VH 2: B1 VH 2
VL 2: B1 VL 2
notes: knob-into-hole TDB; also called 1G7.v85 TDB; 1G7.v85 (TDB format)
[2]
  Kd: 2.1 nM
[3]
  Kd: 7.8 nM
[4]
  Kd: 2.35 nM
  koff: 0.00104 s⁻¹
  kon: 441000 M⁻¹ s⁻¹
[5]
  Kd: 7.82 nM
  koff: 0.000455 s⁻¹
  kon: 58200 M⁻¹ s⁻¹
